Data set [1] addresses T1, RPA (Rfa1-Rfa2-Rfa3) (Saccharomyces cerevisiae, UniProt P22336;P26754;P26755 1-621;1-273;1-122). Put plainly: EMSA; 150 mM KCl; second RPA binds at 50-100 nM; EMSA: 20 mM Tris-HCl pH 7.5, 150 (or 15) mM KCl, 1 mM DTT, 100 ug/mL BSA, 5 nM DNA, 30 C 10 min; curtains: 40 mM Tris-HCl pH 7.5, 150 or 15 mM NaCl, 2 mM MgCl2, 1 mM DTT, 0.2 mg/mL BSA; MST: 1x PBS-P+. The settings on record: protein: recombinant; tags: His tag (MST: His-tagged RPA, RED-tris-NTA dye); copies: 1;1;1; label: 5'-32P. In general terms: In EMSA bound probe runs differently from free probe, usually more slowly.

For data set [2], the target named is T1, RPA (Rfa1-Rfa2-Rfa3). The data set is described as follows: EMSA; 150 mM KCl; single shifted species, affinity similar to dT30; EMSA: 20 mM Tris-HCl pH 7.5, 150 (or 15) mM KCl, 1 mM DTT, 100 ug/mL BSA, 5 nM DNA, 30 C 10 min; curtains: 40 mM Tris-HCl pH 7.5, 150 or 15 mM NaCl, 2 mM MgCl2, 1 mM DTT, 0.2 mg/mL BSA; MST: 1x PBS-P+. The settings on record: protein: recombinant; tags: His tag (MST: His-tagged RPA, RED-tris-NTA dye); copies: 1;1;1; label: 5'-32P.

Data set [3] addresses T1, RPA (Rfa1-Rfa2-Rfa3). The data set is described as follows: EMSA; 150 mM KCl; single shifted species; EMSA: 20 mM Tris-HCl pH 7.5, 150 (or 15) mM KCl, 1 mM DTT, 100 ug/mL BSA, 5 nM DNA, 30 C 10 min; curtains: 40 mM Tris-HCl pH 7.5, 150 or 15 mM NaCl, 2 mM MgCl2, 1 mM DTT, 0.2 mg/mL BSA; MST: 1x PBS-P+. The settings on record: protein: recombinant; tags: His tag (MST: His-tagged RPA, RED-tris-NTA dye); copies: 1;1;1; label: 5'-32P (EMSA); unlabeled (MST).

The target of data set [4] is RPA-MeGFP (Saccharomyces cerevisiae, UniProt P22336;P26754;P26755 1-621;1-273;1-122). The data set is described as follows: MST; similar to RPA; EC50 only in figure; PBS-P+; EMSA: 20 mM Tris-HCl pH 7.5, 150 (or 15) mM KCl, 1 mM DTT, 100 ug/mL BSA, 5 nM DNA, 30 C 10 min; curtains: 40 mM Tris-HCl pH 7.5, 150 or 15 mM NaCl, 2 mM MgCl2, 1 mM DTT, 0.2 mg/mL BSA; MST: 1x PBS-P+. The settings on record: protein: recombinant; tags: MeGFP (eGFP A206K)-6xHis at Rfa2 C-terminus, LG linker; copies: 1;1;1; label: 5'-32P (EMSA); unlabeled (MST).
RPA-MeGFP, sequence (P22336 whole entry, chain 1 of 3): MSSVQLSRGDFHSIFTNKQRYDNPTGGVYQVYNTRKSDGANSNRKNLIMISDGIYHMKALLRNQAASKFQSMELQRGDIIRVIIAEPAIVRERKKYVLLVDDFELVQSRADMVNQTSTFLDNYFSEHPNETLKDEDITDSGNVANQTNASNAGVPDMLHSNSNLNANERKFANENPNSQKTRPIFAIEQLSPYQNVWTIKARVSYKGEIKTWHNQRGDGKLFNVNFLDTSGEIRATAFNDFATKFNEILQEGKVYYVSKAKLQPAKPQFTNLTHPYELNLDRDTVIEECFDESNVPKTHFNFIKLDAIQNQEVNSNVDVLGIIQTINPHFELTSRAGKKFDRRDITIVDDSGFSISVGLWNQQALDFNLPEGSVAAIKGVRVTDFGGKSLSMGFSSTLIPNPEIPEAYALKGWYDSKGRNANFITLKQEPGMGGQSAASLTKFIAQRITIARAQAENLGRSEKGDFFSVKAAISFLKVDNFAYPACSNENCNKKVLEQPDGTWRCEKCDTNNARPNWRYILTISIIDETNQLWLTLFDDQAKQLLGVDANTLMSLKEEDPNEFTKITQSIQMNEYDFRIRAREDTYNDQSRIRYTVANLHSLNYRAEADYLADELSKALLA
RPA-MeGFP, sequence (P26754 whole entry, chain 2 of 3): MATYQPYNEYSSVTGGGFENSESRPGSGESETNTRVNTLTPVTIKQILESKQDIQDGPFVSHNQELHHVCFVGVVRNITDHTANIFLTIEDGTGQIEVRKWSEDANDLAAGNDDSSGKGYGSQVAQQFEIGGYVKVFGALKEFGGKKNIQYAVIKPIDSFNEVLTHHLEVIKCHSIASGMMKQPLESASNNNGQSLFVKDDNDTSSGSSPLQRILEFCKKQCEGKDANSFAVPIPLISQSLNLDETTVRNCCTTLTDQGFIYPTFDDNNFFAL
RPA-MeGFP, sequence (P26755 whole entry, chain 3 of 3): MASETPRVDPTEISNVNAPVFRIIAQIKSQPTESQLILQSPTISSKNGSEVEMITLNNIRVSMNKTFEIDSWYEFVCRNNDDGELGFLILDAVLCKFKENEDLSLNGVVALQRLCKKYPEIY

The target in data set [5] is T1, RPA (Rfa1-Rfa2-Rfa3). The data set is described as follows: EMSA; 150 mM KCl; second RPA at 20 nM, third at 200 nM; EMSA: 20 mM Tris-HCl pH 7.5, 150 (or 15) mM KCl, 1 mM DTT, 100 ug/mL BSA, 5 nM DNA, 30 C 10 min; curtains: 40 mM Tris-HCl pH 7.5, 150 or 15 mM NaCl, 2 mM MgCl2, 1 mM DTT, 0.2 mg/mL BSA; MST: 1x PBS-P+. The settings on record: protein: recombinant; tags: His tag (MST: His-tagged RPA, RED-tris-NTA dye); copies: 1;1;1; label: 5'-32P.

Data set [6] has as its target T1, RPA (Rfa1-Rfa2-Rfa3). Put plainly: EMSA; minimal length for stable first RPA; EMSA: 20 mM Tris-HCl pH 7.5, 150 (or 15) mM KCl, 1 mM DTT, 100 ug/mL BSA, 5 nM DNA, 30 C 10 min; curtains: 40 mM Tris-HCl pH 7.5, 150 or 15 mM NaCl, 2 mM MgCl2, 1 mM DTT, 0.2 mg/mL BSA; MST: 1x PBS-P+. The conditions noted are these: protein: recombinant; tags: His tag (MST: His-tagged RPA, RED-tris-NTA dye); copies: 1;1;1; label: 5'-32P.

The target of data set [7] is T1, RPA (Rfa1-Rfa2-Rfa3). The data set is described as follows: EMSA; minimal length for stable third RPA; EMSA: 20 mM Tris-HCl pH 7.5, 150 (or 15) mM KCl, 1 mM DTT, 100 ug/mL BSA, 5 nM DNA, 30 C 10 min; curtains: 40 mM Tris-HCl pH 7.5, 150 or 15 mM NaCl, 2 mM MgCl2, 1 mM DTT, 0.2 mg/mL BSA; MST: 1x PBS-P+. The conditions noted are these: protein: recombinant; tags: His tag (MST: His-tagged RPA, RED-tris-NTA dye); copies: 1;1;1; label: 5'-32P.

Data set [8] deals with T1, RPA (Rfa1-Rfa2-Rfa3). The data set is described as follows: EMSA; 150 mM KCl; 2-stage binding; EMSA: 20 mM Tris-HCl pH 7.5, 150 (or 15) mM KCl, 1 mM DTT, 100 ug/mL BSA, 5 nM DNA, 30 C 10 min; curtains: 40 mM Tris-HCl pH 7.5, 150 or 15 mM NaCl, 2 mM MgCl2, 1 mM DTT, 0.2 mg/mL BSA; MST: 1x PBS-P+. The conditions noted are these: protein: recombinant; tags: His tag (MST: His-tagged RPA, RED-tris-NTA dye); copies: 1;1;1; label: 5'-32P.

T1 sequence (P22336 whole entry, chain 1 of 3): as the sequence (P22336 whole entry, chain 1 of 3) above
T1 sequence (P26754 whole entry, chain 2 of 3): as the sequence (P26754 whole entry, chain 2 of 3) above
T1 sequence (P26755 whole entry, chain 3 of 3): as the sequence (P26755 whole entry, chain 3 of 3) above

B1: dT(40) (ssDNA)
DNA: TTTTTTTTTTTTTTTTTTTTTTTTTTTTTTTTTTTTTTTT
For B1, the binding result in data set [1] is given as “binds”.

B2: dT(20) (ssDNA)
DNA: TTTTTTTTTTTTTTTTTTTT
As to B2, the binding result in data set [2] was “binds”.

B3: dT(30) (ssDNA)
DNA: TTTTTTTTTTTTTTTTTTTTTTTTTTTTTT
With B3, the binding result in data set [3] and in data set [4] was “binds” each time.

B4: dT(60) (ssDNA)
DNA: TTTTTTTTTTTTTTTTTTTTTTTTTTTTTTTTTTTTTTTTTTTTTTTTTTTTTTTTTTTT
Consider B4, for which, in data set [5], the binding result was “binds”.

B5: dT(15) (ssDNA)
DNA: TTTTTTTTTTTTTTT
On to B5, for which the binding result in data set [6] is listed as “binds”.

B6: dT(54) (ssDNA)
DNA: TTTTTTTTTTTTTTTTTTTTTTTTTTTTTTTTTTTTTTTTTTTTTTTTTTTTTT
With B6, the binding result in data set [7] is recorded as “binds”.

B7: dT(50) (ssDNA)
DNA: TTTTTTTTTTTTTTTTTTTTTTTTTTTTTTTTTTTTTTTTTTTTTTTTTT
Regarding B7, the binding result in data set [8] is “binds”.

Source of the values: PMC10313831, “ssDNA accessibility of Rad51 is regulated by orchestrating multiple RPA dynamics”.
